Measured values: publication PMC9871958 (Protein & Cell, 2022)

Columns and labels:
SARS-CoV-2 RBD protein [1] = target: T1, SARS-CoV-2 RBD protein (SARS-CoV-2, UniProt P0DTC2); assay: SPR; settings: both partners purified
SARS-CoV-2 RBD protein [2] = target: T1, SARS-CoV-2 RBD protein; assay: cell-based or functional assay

B1: 1F (antibody, V domains shown)
VH: EVQLVESGPGLVKPSETLSLTCTVSGGSISSSSYYWGWIRQPPGKGLEWIGSIYYRGSTYYNPSLKSRVTISVDTSKNQFSLKLSSVTAADTAVYYCARHVRSAYYYGSGSYRDEGNWFDPWGQGTLVTVSS
VL: QSVLTQPPSVSGAPGQRVTISCTGTRSNIGAGHDVHWYQQLPGTAPKLLIYGNNNRPSGVPDRFSGAKSGTSASLAITGLQAEDEADYYCQSYDRTLTSYVFGTGTKVTVL
SARS-CoV-2 RBD protein [1]
  Kd: 0.077 nM
SARS-CoV-2 RBD protein [2]
  IC50 of neutralisation of authentic SARS-CoV-2 virus (1F blocks RBD-ACE2): 18 ng/mL
